# Values quoted from earlier work as cited in patent US20240269237A1, “PHARMACEUTICAL COMPOSITION AND KIT COMPRISING AN IMMUNOMODULATORY SUBSTANCE FOR TREATING DISEASES” (ellennbe GmbH, priority 2021, published 2024).
# System: ankylosing spondylitis (Bechterew's disease)
# Conditions: Patient 11, history; within half a year the biologics lost their effect
molecule,measurement,value
"certolizumab pegol (antibody, chains of the INN, looked up, V domains shown) VH: EVQLVESGGGLVQPGGSLRLSCAASGYVFTDYGMNWVRQAPGKGLEWMGWINTYIGEPIYADSVKGRFTFSLDTSKSTAYLQMNSLRAEDTAVYYCARGYRSYAMDYWGQGTLVTVSS VL: DIQMTQSPSSLSASVGDRVTITCKASQNVGTNVAWYQQKPGKAPKALIYSASFLYSGVPYRFSGSGSGTDFTLTISSLQPEDFATYYCQQYNIYPLTFGQGTKVEIK",effect of earlier treatment with biologics,little effect from the outset
